The term Kd denotes the equilibrium constant for the complex coming apart.

Holding throughout (assay): SPR
On the technique in general: SPR reads the build-up and loss of mass on a sensor chip optically.

The target of experiment [1] is Recombinant human CypD protein (cyclophilin D) (human) (UniProt P30405).
Another experiment has as its target oligomeric Aβ42.
For another experiment, the target named is oligomeric Aβ40.

As to Aβ40 (Aβ peptide residues 1-40), the Kd in experiment [1] amounted to 1700 nM.

Take Aβ42 (Aβ peptide residues 1-42): the dissociation constant (Kd) in experiment [1] worked out at 164 nM.

“Recombinant human CypD protein (cyclophilin D) (from UniProt P30405 30-207) (natural protein)”: the Kd with oligomeric Aβ42 came out at 4 nM; with oligomeric Aβ40, 227 nM.

The values are drawn from PMC2789841.
